Measured values published in the DeepSol protein solubility set.

Test: soluble on expression in E. coli; label from the status in PepcDB or PDB records

Soluble on expression in E. coli, not soluble:
MGSDKIHHHHHHMTNLNEKQLITEIVGLARSQGLTVHSENAQLNETGMDFQVVFAKDDTGMPWVLRKPRRSDVVERASAEGITLAFLRANLTADVPDWRIHTPELIAYPMLKGTPAAGIDLEQKQYVWNMDHQPPSDDFVRTLADILAELHGTDQISAGQSGIEVIRPEDFRQMTADSMVDVKNKLGVSTTLWERWQKWVDDDAYWPGFSSLIHGDLHPPHILIDQNGRVTGLLDWTEAKVADPAKDFVLYQTIFGEKETARLLEYYDQAGGRIWAKMQEHISEMQAAYPVEIAKLALQTQQEEHINMALEALGVTSD, MGSDKIHHHHHHMTPAQLKDELIAYSKTIGIDKIGFASADPFLTLKERLQTQQALGYQSGFEEPDIDKRVYPEKILPKARSIISIALAYPSKMKNPPKSKKGERRGVFCRASWGKDYHDILRDRLKKLEDFLLERVPDMKVLSMVDTGALSDRAVAERAGIGWSGKNCGVITPEFGSYVYLGDLVTTIPFPPDIPLTDQCGTCNKCVDACPTGALIQGGQLDSQKCIAFLTQTKGFLPEKYRKKLGNRLYGCDTCQQVCPANKGKNFHFHEEMEPDPEIAKPKLIPLLTMSNREFKEKFGHVSGSWRGKKPIQRNAILALAHFKEEAALPILADLLRQDPRPVIRGTAGWALGKIGGPEVETWLKDALKREKDEDVRAEISRGLEILAYGDSGNGKETEDSIR, MGSDKIHHHHHHMTQFDVLTIGNAIVDIISRCEDQFLEENGIVKGAMNLIDAERATRLYSLMGPAIEASGGSAGNTAAGIASFGGKAAYFGKVAEDELGEIFAHDIRAQGVHYQTMAKGQHPPTARCMIFVTEDGERSMNTYLGACVEFGPEDVEPEVVKQAKVTYFEGYLWDPPRAKQAIVDCARIAHEHGREMSMTLSDSFCVHRYRAEFLDLMRSGTVDIVFANRQEALALYETEDFDAALDQIAKDCKLAAVTMSEEGAMIIRGSERIHVPATTIAELVDTTGAGDLFASGFLYGYTQGRTLEECGKLGCLAAGLVIQQMGPRPLASLQEAAAEAGLI, MGSDKIHHHHHHMTQFWRDPTLPFVESRRATDSRACYRPHSHPTLSIGVVDRGQSQFQCQRRREWLTPGCLVSVPAGVVHDCNPLPDQPWSYQMLYLEPAWVSEVLDEASAETDAAPTLPSTVFIARDVAPYQAFCRLNALLFSSAPRADKEAGLIEFLGSRLWCHGDAMAVHWPNSSDLDDLQRHLLECLERPPSLEVLARDHGLSRYQVIRLFRRETGLTPHAWLLDRRIQQARRRLCQGVELAELAQELGFADQGHFQRAFKARVAATPGRYRST, MGSDKIHHHHHHMTQLSNKTKDSCNWDSIVIGSGLGGLVTASQLASKGAKVLVLEQYKIPGGSGGSFKRKGFTFDVGASMIFGFGNKGYTNLLTRALKDVGQKCETIPDPTQLAYHLPNQLEISVDRDYQKFITKLINLFPHEEKGIKHFYETCWDVFNCLDSMPLLSIEDPAYLMKVFFKSPLSCLGLARWLPVNAGDVAMRYIKDPDLLRFIDIECFCWSVMPANLTPMINAGMVFSDRHYGGINYPKGGVGVIAEKLVKGIKNLGGEIRYKSRVKKIIFEKGNAIGVSLENDEEIFSKTVVSNATRWDTFGGQGIKSPLVATENKPTSEKKWENRYIPSPSFLSLHLGVNVDSIPANTHCHHLLLDKWEEMDKEQGVTFVSIPTLLDPTLAPSGSHIVHAFTPSSIDNWDGLSNKEYLAKKKEDGDKLISKLERLFPNLSQNILHKEIGSPRTHKRFLARNKGSYGPIPSMRLPGLLPMPFNTTKINGLYCVGDSCFPGQGLNAVAFSGYACAHKIGTKLGMNKWELPE, MGSDKIHHHHHHMTQSSLDPATVELTADQQQAAEAFSSWLDDANHGNPFVLSGFAGSGKTFLSMRLLRQVEDAGLCWTVVAPTHKAVGVLRQALDLEGLRPTWYPSTIHRLLRLKLKRQGDLELCESTEQTAQSLEQLGLVLIDESSMIDSTLLGLALQCAHPFRTRLVFVGDPAQLPPIGEAQSPVFSMHRACTATLQQVVRHQGPVLRLASRLRDGSLPCQSPPCFPLIEDELGRVGCMDQNNWLKRAQAALQSAAIQDNPDAARILCYTNRSLEQLVPHARRAIHGDMADQLPVLPGEVLIARKAVMAPASRSGAETGEEPDMVLGSNREVVVRDVTPERCDLAEFGLEGQSDWSVPVVDTLTAKVRAGELDLELRLQPPVGSEGRRLLDTTLQRLRVEAKAAGKSDGRSLWRRFFLLRDAFASLGPAAVLTVHRSQGSSFGEVFVAGDVFWPQDLSLRRQLVYVAVSRARTGVWLVGKTGAAAQSRWLDQLRSQSSDR, MGSDKIHHHHHHMTQYIYLHGFASSPQSAKAQDIRQRFAQIHTQLTIPDLNAGEFSQLTITRQIQQIAATFPDDSVPITLIGSSLGGLTAAHLGQRYLQVQRLVLLAPAFGFLSHWLPKMGEGAVQSWQQNGYYPVYHYGEGTSLPLSYNFVTDAAQYQEDHIQRPIPTLILHGKHDEVIPITASRDFAHSRPWVELIELDSNHALGNVMEEIWQAISLFCQLPESGKI, MGSDKIHHHHHHMTRSTIGGKRFEPIPARFSSIGAGLMNIKQLEVLRTLLSTGSTIATAKAMGLSQSGISRLLAQLEADLSLTLFARDKGRLIPTPEAALLARDAENVLLAVDRMSGHAEDLRNGAAGPEIVRIGLPSSMWENFAPAMLIDYVRDFPGVRIETFFETTTAINKLVGERVIDLGFLRMEGEIGPGIDVERVATGKSVCVVREDHPLADLQEITVKDLRNIPLILIGRQRPNRMALDQVFKKAGVKPMVKIETHTNSSACAYVAHGLGVTIISSFYANLYRHLPVVARPFVPQATQEFGLARASGAPLSIAAQALSNALKREIQLSQKID, MGSDKIHHHHHHMTRSVKRVAAIHDLSGFGRASLTAIIPIMSYMGIQVCPMPTAVLSTHTTDFHEYSFVDLTDSMQDFMNHWKKINLEFDAIYTGFLGSPRQVKIISDFVKEFSSDSTLVLIDPVMGDEGELYQTMNSEIVRSMRELIKSADIITPNFTEAAYLLDKDYNLELNEETIKEWILELANMGPDIVIMTSVPENKDKSTISVIAYEKKLNKFWKITSEYIPVSYPGTGDSFASAILGRILKGDNLPQAVGRGMQFITSAIKESYGFDYPTREGILIEKSLEVLNLPFMNGNYKLI, MGSDKIHHHHHHMTSDVLVIAPFRRPTFRTAISHLYPVTEPWDSPPLITCGAIQEAGLEVDYVALQNIFNGYDPERDGRDLNEILGVLHPKVVIFSSDHFIPSRSTASIYGISLVSKIFKSRERPPLIGVCGRLATVAAQRLFAEVPEVDFAVIGESDGVIGEVVADLLAADMEETSRRHGYVHTRTAPARDIAYMGDVNDVALPAFALALPSIAQYRSRFGLEENPLPFSLRTSFGCKFKCRFCAGVPHWLDYRKKSPDRVQAELDAFLNQLGDQARISFLEDEIFTRDPEHVAAITALLKERNIYLDGLYTHSTLLTPEIAADLCTVADRVFTGLDNADDQILRKMGKGQLLDTVLDAVEKAQAASLKVHLEWIIGTPEETLDTLVTSLSTIFNLLSTHAVESINTYVYCPHPGTDYTVNAKKYRMRVLDTFDGIQESGGYPAFDTANLTRNQIYTAYLMSQLVIAEVTAARQHSSIPRAVVPASRSELLRLFGMIGEGQVAFDFDEAPVGRVSYPEGTSRA, MGSDKIHHHHHHMTSFVLSSKNAFDYLILQGLCTQNEKSLSKIELVPAKNFNLLISLPDNRKLLIKQEPHKREGKTSGEFLKEWRVHNFLQTFPELSDIRSYFSEAVHFDPENSIFVFNYLTNYRDLMDFYVERNLKLFPIKIAMLVGTTLASIHRLSIDRQEYQEFFLNKNIFGQGIPNLNLGMDRVSPAVFGKLPTDGLKFLSLYQRYDSLGQAIAELNNALIPCCLTHNDLKLNNILLSLNWEEAAFNESSSDESIIRLIDWERGAWGDPASDLGTLIASYLQLWLHSMITSKTMAIQESLRLATTPLHLLQPSIRELVIAYLSAFPEIIELHPDFLQRVMQFCGFALIKSIQAKLQHEKTFGNKGICILQVAKSLLCRPEASIPTIFGVDASDLSPINLSPASK, MGSDKIHHHHHHMTSKLTEVSTPPQAAMPKSTLANEQENKVFIIGLPRTGTTSVSVALLEQGLTVAHQAFTKQAFMLADAVSDAPCFSDYQQLDKLFPNAKFVYLDRPLDKWLPSMQMLLGRMLVHLDKDKGRFHPVMKRSFNHCFDIWQVEDVFDEAHLTACYQRHQQQVMSYFAGRDDFISIDISVTGSLAKLLQFIDLAKPDTAEFRQLQYPQLQSQPQNFPQLNFPQLNFPQLNTGRNVASWDEYKHPNKISANASGPDKRKFFDYRL, MGSDKIHHHHHHMTSTPHSPSEMFASIPGIFGFYPEESIVVLTLMHTKESCYQLGPVMRLDLKDLRYLSDIGDTLSAIEPDLVFGLIISGQKPEAIEDLRGLIEFVADCEIVPFDACWYTSAIESGGKYDAIWLNEAMTEAALEYQSWRKGRIPLIANTGITGEMIHAGHLPELSRKDIEKHYAQAEESEQWDEYLITERYAELFDDPSTSFRSAQECIDAFSQAVELMRTEKLITDAALTVAAFLKNKMSRDIIIECCVHNANTVKEALCYVSRHTKGFVRANALALYALCIVDSPWGNHITCVLQAAHNTLPFHHLTALVAEAYYRGLSGSIVDLVVSGSQEAQKHFGEATNVKSAV, MGSDKIHHHHHHMTTDSSNNRTISSKSTLSSKSIINVGPFTPHIEFIGQQQTPVIIIDDFGADLSQLIDIAIDDSQFNQDQGSYYPGQRAPLPKQYVIDVINAVYQLIYDTYKVPHSLRLKPQQCVFSVIDKPAQRLLPLQCMPHFDTPDPHYFAILHYLNNGDHGDTGFFRHNTTQYEQISPHNIDHYFNQAQPVVDAQQTLMPDYVVDSNDHYTLYHQVHYRPNRLVIYPGNLLHSTLVNPVTDIDSSPKTGRLTANIFINFK, MGSDKIHHHHHHMTTILHAMLGKGLGGLEQVFLDYQPILEAWAARRGGRCVGVVRKGGKMAVAQANRTPPLSAMPALTDWDPITVGAARALVKTYRPALIFSHGQRPARVFDKAAPADVVRAVCLHKPSFDVTPGTHYVCVGQHLAALAIERGAPADHVWLVPNAVKPPGVEAQPFAEAGRPIRIVAAGRLHPKKGFDVLIHAVGKLRAWDYEVTCEIAGEGDERGALEGLIRDLDLEASVTLKGWTGDVAGFLATGDLFAFPSHQEGFPLTLLEAMAVGLPVVASEIDGPLEILTDGRDGRLVPDNDPDRLAEALAELISDRETAVRLGAAARQQVLTEYSPQELARRLEAALDGMTSRA, MGSDKIHHHHHHMTTLGIDHPLVCVRDLAAKRATYQSLGFLMKPPGMHPWGTSTALVIFRNQLLELVSIEDESLLDGYAAGSFRFGRHVEAWLAEREGVCLSALNSMDAEADEAAVLARGGSCAGTVEFGRDVVRDDGTPDRTKTTLKIFPHAGLPRLSMFACQQHRRDLIEFPDWMDHPNGAHGFASATILAAPSDQGRVRDWLSVLHGADAVRDTDWGFEVATTNGRWRVVSRATAPALLGKLPDGLASDGAPSVISLDIRCHALSQLRPFVEAGEFVCQDVNGALVLTEVARLGGILLSFHEIPKV, MGSDKIHHHHHHMTTLKARLRQGQAITMIGNSLPDTYAAEMVASAGFDAVMIDLQHSAIGLHEVNDLARAVRAQGCAPVVRVAANDPAAITKVLDGGVDAVVAPMINSAEACRQFISACYYAPLGDRSFGPYLGQVIQRQSIQDYYAQTRDRLLPIAMIENEEGVRQAEQIMRTEGLGAIYVGASDLSIAMGMDCVPDYRNARLLDCIKGLIDLGERCGIPVGAFAPTLEDSLMLQSLGSRILWVGSDQGFIKAGCAARAQQYHAESSPRR
